Laboratory results reported in the Human Domainome abundance scans (Beltran et al. 2025).

B1: POU domain, class 3, transcription factor 3, residues 320 to 388; numbered along this chain, P20264 (parent)
chain: DDLEQFAKQFKQRRIKLGFTQADVGLALGTLYGNVFSQTTICRFEALQLSFKNMCKLKPLLNKWLEEAD

Variants of: B1
Experiment: abundance fitness (aPCA) (normalised: wild type 0, dead -1); higher = more abundant; growth selection in yeast, the domain comes from the species named
Details: Homo sapiens

Abundance fitness: each site, then its substitutions
T40: H -0.778; R -0.583; A -0.386; G -0.92; D -0.393; Q -0.102; I -0.553; C -0.615; E -0.237; K -0.179; N -0.734; Y -0.59; P -0.704; S -0.49; W -0.441; V -0.174
K52: N -0.093
M54: T -0.733; F -0.96; S -0.483; R -0.909; Q -0.7; P -1.05; I -0.911; L -0.428; C -0.636; W -0.801
R43: D -0.402; M -0.62; E -0.076; Q -0.113; G -0.798; L -0.858; H -0.586; C -0.447; W -0.866; P -0.975; K -0.034; T -0.946
L61: G -0.891; A -0.803; R -0.97; I -0.696; T -0.513; C -0.796; P -0.928; V -0.513; W -0.881; K -0.66; S -0.977; M -0.522; E -0.99; Q -0.811
T39: I -0.157; F -0.509; E 0.11; G -0.215; D 0.014; M -0.502; Y -0.769; K -0.006; W -0.846; H 0.074; L -0.195; P -0.579; A -0.011; Q -0.077; R -0.058; S -0.099
C42: G -0.014; N 0.208; R 0.054; A 0.076; S -0.14; P -0.276; Y 0.055; M -0.284; W -0.38; D 0.032; T -0.176; L -0.193; Q 0.06; I 0.11; H -0.006; K 0.13
Q38: M -0.498; Y -0.207; R -0.103; H -0.524; G 0.003; L -0.531; T 0.079; A -0.143; S -0.082; V -0.421; E 0.192; D -0.075; N -0.435; K -0.18; F -0.356; P -0.028; C -0.32
F36: T 0.071; P -0.043; L -0.07; R 0.368; Y -0.04; E -0.121; V 0.017; C 0.219; H -0.216; K -0.364; Q -0.214; A -0.068; M 0.021; W -0.714
L49: Y -0.582; P -0.65; V -0.934; A -0.441; E -0.573; S -0.649; W -0.021; T -0.846; N -0.594; I -1.01; M -0.078; K -0.548; R -0.385; C -0.873; H -0.697; F -0.865
L60: W -0.227; V -0.309; K -0.334; R -0.491; A -0.51; S -0.563
A46: S -0.059; V -0.702; T -0.142; W -0.601; H -0.043; C -0.299; R -0.277; Q -0.282; E -0.178; K 0.205; M 0.22; P -0.843; I -0.727; D -0.573; G -0.053
F51: T 0.061; A -0.081; Q 0.142; P 0.064; R 0.035; E 0.115; S -0.002; K 0.132; W -0.567; N -0.002; M -0.231; H 0.051; G -0.136; D -0.14
